Reference: IntAct's records for PubMed 19298369

B1: Sigma factor AlgU negative regulatory protein (Pseudomonas aeruginosa (strain ATCC 15692 / PAO1 / 1C / PRS 101 / LMG 12228)), P38107 (parent)
chain: MSREALQETLSAVMDNEADELELRRVLAACGEDAELRSTWSRYQLARSVMHREPTLPKLDIAAAVSAALADEAAPPKAEKGPWRMVGRLAVAASVTLAVLAGVRLYNQNDALPQMAQQGTTPQIALPQVKGPAVLAGYSEEQGAPQVITNSSSSDTRWHEQRLPIYLRQHVQQSAVSGTESALPYARAASLENR
partner: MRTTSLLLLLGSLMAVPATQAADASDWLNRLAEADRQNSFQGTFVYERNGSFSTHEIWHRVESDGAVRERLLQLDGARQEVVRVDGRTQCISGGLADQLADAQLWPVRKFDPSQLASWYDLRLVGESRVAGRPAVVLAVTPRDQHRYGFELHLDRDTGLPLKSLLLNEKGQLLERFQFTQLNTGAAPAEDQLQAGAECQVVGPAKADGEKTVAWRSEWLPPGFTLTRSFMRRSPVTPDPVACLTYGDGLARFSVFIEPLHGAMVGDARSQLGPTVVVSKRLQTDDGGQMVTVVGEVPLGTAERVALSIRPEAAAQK

Variants of: B1
Conditions: with mucb_pseae mucB

Row | Variant | effect of a mutation on the interaction
1 | MSREALQETLSAVMDNEADELELRRVLAACGEDAELRSTWSRYQLARSVMHREPTLPKLDIAAAVSAALADEAAPPKAEKGPWRMVGRLAVAASVTLAVLAGVRLYNQNDALPQMAQQGTTPQIALPQVKGPAVLAGYSEEQGAPQVITNSSSCDTRWHEQRLPIYLRQHVQQSAVSGTESALPYARAASLENR | decreasing interaction strength
